Source: US20260266848A1, “COMPOSITIONS AND METHODS FOR DIAGNOSING AND TREATING DYSTONIA” (Duke University, priority 2023, published 2026)
Like-named read-outs stand apart in the source and are kept apart here.

B1: Itgb3 (protein, UniProt O54890 26-787, looked up)
Integrin beta-3: ESNICTTRGVNSCQQCLAVSPVCAWCSDETLSQGSPRCNLKENLLKDNCAPESIEFPVSEAQILEARPLSSKGSGSSAQITQVSPQRIALRLRPDDSKIFSLQVRQVEDYPVDIYYLMDLSFSMKDDLSSIQTLGTKLASQMRKLTSNLRIGFGAFVDKPVSPYMYISPPQAIKNPCYNMKNACLPMFGYKHVLTLTDQVSRFNEEVKKQSVSRNRDAPEGGFDAIMQATVCDEKIGWRNDASHLLVFTTDAKTHIALDGRLAGIVLPNDGHCHIGTDNHYSASTTMDYPSLGLMTEKLSQKNINLIFAVTENVVSLYQNYSELIPGTTVGVLSDDSSNVLQLIVDAYGKIRSKVELEVRDLPEELSLSFNATCLNNEVIPGLKSCVGLKIGDTVSFSIEAKVRGCPQEKEQSFTIKPVGFKDSLTVQVTFDCDCACQAFAQPSSPRCNNGNGTFECGVCRCDQGWLGSMCECSEEDYRPSQQEECSPKEGQPICSQRGECLCGQCVCHSSDFGKITGKYCECDDFSCVRYKGEMCSGHGQCNCGDCVCDSDWTGYYCNCTTRTDTCMSTNGLLCSGRGNCECGSCVCVQPGSYGDTCEKCPTCPDACSFKKECVECKKFNRGTLHEENTCSRYCRDDIEQVKELTDTGKNAVNCTYKNEDDCVVRFQYYEDTSGRAVLYVVEEPECPKGPDILVVLLSVMGAILLIGLATLLIWKLLITIHDRKEFAKFEEERARAKWDTANNPLYKEATSTFTNITYRGT
B2: Ssb (protein, UniProt P32067 1-415, looked up)
Lupus La protein homolog: MAENGDNEKMTALEAKICHQIEYYFGDFNLPRDKFLKEQIKLDEGWVPLETMIKFNRLNRLTTDFNVIVQALSKSKAKLMEVSADKTKIRRSPSRPLPEVTDEYKNDVKNRSVYIKGFPTDATLDDIKEWLDDKGQILNIQMRRTLHKTFKGSIFAVFDSIQSAKKFVEIPGQKYKDTNLLILFKEDYFAKKNEERKQSKVEAKLKAKQEHEGRHKPGSTETRALEGKMGCLLKFSGDLDDQTCREDLHFLFSNHGEIKWVDFARGAKEGIILFKEKAKEALEKARNANNGNLLLRNKKVTWKVLEGHAEKEALKKITDDQQESLNKWKSKGGHAGGRFKGSHVFTAARRFKGKGKGNRPGYAGAPKGRGQFHGRRTRFDDDDRRRGPMKRGRDGRDREEPASKHKKRENGARDK
B3: Cryab (protein, UniProt P23927 1-175, looked up)
Alpha-crystallin B chain: MDIAIHHPWIRRPFFPFHSPSRLFDQFFGEHLLESDLFSTATSLSPFYLRPPSFLRAPSWIDTGLSEMRLEKDRFSVNLDVKHFSPEELKVKVLGDVIEVHGKHEERQDEHGFISREFHRKYRIPADVDPLTITSSLSSDGVLTVNGPRKQVSGPERTIPITREEKPAVAAAPKK
B4: Esyt1 (protein, UniProt Q3U7R1 1-1092, looked up)
Extended synaptotagmin-1: MEHSPEEGASPEPSGQPPATDSTRDGGSGVPPAGPGAASEALAVLTSFGRRLLVLVPVYLAGAAGLSVGFVLFGLALYLGWRRVRDGKERSLRAARQLLDDEERITAETLYMSHRELPAWVSFPDVEKAEWLNKIVAQVWPFLGQYMEKLLAETVAPAVRGANPHLQTFTFTRVELGEKPLRIIGVKVHPSQRKDQILLDLNVSYVGDVQIDVEVKKYFCKAGVKGMQLHGVLRVILEPLTGDLPIVGAVSMFFIKRPTLDINWTGMTNLLDIPGLSSLSDTMIMDSIAAFLVLPNRLLVPLVPDLQDVAQLRSPLPRGIIRIHLLAARGLSSKDKYVKGLIEGKSDPYALVRVGTQTFCSRVIDEELNPHWGETYEVIVHEVPGQEIEVEVFDKDPDKDDFLGRMKLDVGKVLQAGVLDNWYPLQGGQGQVHLRLEWLSLLPDAEKLDQVLQWNRGITSRPEPPSAAILVVYLDRAQDLPLKKGNKEPNPMVQLSVQDVTRESKATYSTNSPVWEEAFRFFLQDPRSQELDVQVKDDSRALTLGALTLPLARLLTASELTLDQWFQLSSSGPNSRLYMKLVMRILYLDYSEIRFPTVPGAQDWDRESLETGSSVDAPPRPYHTTPNSHFGTENVLRIHVLEAQDLIAKDRFLGGLVKGKSDPYVKLKVAGKSFRTHVVREDLNPRWNEVFEVIVTSIPGQELEIEVFDKDLDKDDFLGRYKVSLTTVLNSGFLDEWLTLEDVPSGRLHLRLERLTPRPTAAELEEVLQVNSLIQTQKSSELAAALLSVFLERAEDLPLRKGTKPPSPYATITVGETSHKTKTVSQSSAPVWEESASFLIRKPHAESLELQVRGEGTGTLGSVSLPLSELLQEDQLCLDHWFALSGQGQVLMRAQLGILVSQHSGVEAHSHSYSHSHSSSSLNDEPEALGGPTHPASPVLEVRHRLTHGDSPSEAPVGPLGQVKLTVWYHSDEQKLISIIHSCRALRQNGRDLPDPYVSVLLLPDKNRSTKRKTPQKKRTLNPEFNERFEWDLPLDGTLRRKLDVSVKSNSSFMSRERELLGKVQLDLAEIDLSQGAAQWYDLMDDRDKGGS
B5: Srsf7 (protein, UniProt Q8BL97 1-267, looked up)
Serine/arginine-rich splicing …: MRSSARGRPLQAATAFFLSLFFFLRRFERGFWLWGGDSETKVYVGNLGTGAGKGELERAFSYYGPLRTVWIARNPPGFAFVEFEDPRDAEDAVRGLDGKVICGSRVRVELSTGMPRRSRFDRPPARRPFDPNDRCYECGEKGHYAYDCHRYSRRRRSRSRSRSHSRSRGRRYSRSRSRSRGRRSRSASPRRSRSVSLRRSRSASLRRSRSGSIIGSRYFQSRSRSRSRSRSISRPRSSRSKSRSPSPKRSRSPSGSPHRSASPERMD
B6: Ipo7 (protein, UniProt Q9EPL8 1-1038, looked up)
Importin-7: MDPNTIIEALRGTMDPALREAAERQLNEAHKSLNFVSTLLQITMSEQLDLPVRQAGVIYLKNMITQYWPDREATPGDIAPYTIPEEDRHCIRENIVEAIIHSPELIRVQLTTCIHHIIKHDYPSRWTAIVDKIGFYLQSDNSACWLGILLCLYQLVKNYEYKKPEERSPLVAAMQHFLPVLKDRFIQLLSDQSDQSVLIQKQIFKIFYALVQYTLPLELINQQNLTEWVEILKTVVNRDVPNETLQVEEDDRPELPWWKCKKWALHILARLFERYGSPGNVSKEYNEFAEVFLKAFAVGVQQVLLKVLYQYKEKQYMAPRVLQQTLNYINQGVSHALTWKNLKPHIQGIIQDVIFPLMCYTDADEELWQEDPYEYIRMKFDVFEDFISPTTAAQTLLFTACSKRKEVLQKTMGFCYQILTEPNADPRKKDGALHMIGSLAEILLKKKIYKDQMEYMLQNHVFPLFSSELGYMRARACWVLHYFCEVKFKSDQNLQTALELTRRCLIDDREMPVKVEAAIALQVLISNQEKAKEYITPFIRPVMQALLHIIRETENDDLTNVIQKMICEYSEEVTPIAVEMTQHLAMTFNQVIQTGPDEEGSDDKAVTAMGILNTIDTLLSVVEDHKEITQQLEGICLQVIGTVLQQHVLEFYEEIFSLAHSLTCQQVSPQMWQLLPLVFEVFQQDGFDYFTDMMPLLHNYVTVDTDTLLSDTKYLEMIYSMCKKVLTGVAGEDAECHAAKLLEVIILQCKGRGIDQCIPLFVEAALERLTREVKTSELRTMCLQVAIAALYYNPHLLLNTLENLRFPNNVEPVTNHFITQWLNDVDCFLGLHDRKMCVLGLCALIDMEQIPQVLNQVSGQILPAFILLFNGLKRAYACHAEHENDSDDDEDAEDDDETEELGSDEDDIDEDGQEYLEILAKQAGEDGDDEDWEEDDAEETALEGYSTIIDDEDNPVDEYQIFKAIFQTIQNRNPVWYQALTHGLNEEQRKQLQDIATLADQRRAAHESKMIEKHGGYKFSAPVVPSSFNFGGPAPGMN

Legend:
WT MEF EVs = experiment: Quantitative LC-MS/MS proteomics of EVs from ISRIB-treated WT MEF cultures; assay type: cell-based, mouse; details: EV protein abundance, ISRIB-treated WT vs WT
DYT-TOR1A MEF EVs = experiment: Quantitative LC-MS/MS proteomics of EVs from drug-treated DYT-TOR1A MEF cultures (ritonavir, salubrinal); assay type: cell-based, mouse; parameters: key to RTV Corrective Direction / RTV Corrective Direction, Grwd1 / RTV Corrective Direction, Srrm2 / RTV Corrective Direction, Rbm17 / RTV Corrective Direction, Dcaf8 / RTV Corrective Direction, Edil3 / RTV Corrective Direction, Timp3 / RTV Corrective Direction, Heatr3 / RTV Corrective Direction, Brd4 / RTV Corrective Direction, P3h4 / RTV Corrective Direction, Pacsin3 / RTV Corrective Direction, Naa50 / RTV Corrective Direction, Lpar6 / RTV Corrective Direction, Ndrg1 / RTV Corrective Direction, Kntc1 / RTV Corrective Direction, Cdk11b / RTV Corrective Direction, Sumo1 / RTV Corrective Direction, Lsm4 / RTV Corrective Direction, Hmga2 / RTV Corrective Direction, Cstf1 / RTV Corrective Direction, Tes / RTV Corrective Direction, Sbno1 / RTV Corrective Direction, Unc119b / RTV Corrective Direction, Cfdp1 / RTV Corrective Direction, Sec61b: YES = protein abundance effect opposite to DYT/WT; details: for DYT + RTV/DYT Cohen's d: ritonavir (RTV)-treated DYT vs DYT
[1] = EV protein abundance, DYT + RTV (ritonavir) vs DYT, direction compared with DYT/WT

Molecule | WT + ISRIB/WT Cohen's d (WT MEF EVs) | RTV Corrective Direction (DYT-TOR1A MEF EVs; [1]) | DYT + RTV/DYT Cohen's d (DYT-TOR1A MEF EVs; EV protein abundance) | RTV Corrective Direction (DYT-TOR1A MEF EVs)
B1 | 0.14 | YES | 1.96 | –
B2 | 0.41 | – | 2.79 | YES
B3 | 0.39 | YES | 1.11 | –
B4 | 0.18 | YES | 1.25 | –
B5 | 0.13 | YES | 2.91 | –
B6 | 0.30 | YES | 2.25 | –
